Assay [1] addresses bovine serum albumin (BSA) (bovine, UniProt P02769 25-607). As to the kind of experiment: pulldown with biotinylated peptide on streptavidin beads, neutral pH, coomassie.
Experimental: (§1) The total incubation volume was 250 μl (50 mM NaPhosphate buffer, 150 mM NaCl, pH7). ‘High Capacity Streptavidin Beads’ (Thermo Fisher Scientific, Waltham, USA) were blocked with 1% BSA solution and equilibrated with the NaPhosphate buffer. For each pulldown 50 μl of beads were utilized and incubated with 200 μl enzyme/peptide mixture for 30 min. at room temperature. The remaining 50 μl of the enzyme/peptide samples were prepared for SDS-PAGE (INPUT fraction). After incubation of the beads with the enzyme/peptide mixture the samples were centrifuged for 1 min. at 1,500×g at 4° C. The supernatant was removed and stored at 4° C. (UNBOUND fraction). Subsequently, the beads were washed three times with NaPhosphate buffer followed by centrifugation at 4,000 rpm at room temperature. […] After destaining the gels were scanned.
Assay [2] concerns the target T1, recombinant human α-mannosidase (LAMAN) (human, UniProt O00754 50-1011, limits assumed).
T1 sequence (looked up): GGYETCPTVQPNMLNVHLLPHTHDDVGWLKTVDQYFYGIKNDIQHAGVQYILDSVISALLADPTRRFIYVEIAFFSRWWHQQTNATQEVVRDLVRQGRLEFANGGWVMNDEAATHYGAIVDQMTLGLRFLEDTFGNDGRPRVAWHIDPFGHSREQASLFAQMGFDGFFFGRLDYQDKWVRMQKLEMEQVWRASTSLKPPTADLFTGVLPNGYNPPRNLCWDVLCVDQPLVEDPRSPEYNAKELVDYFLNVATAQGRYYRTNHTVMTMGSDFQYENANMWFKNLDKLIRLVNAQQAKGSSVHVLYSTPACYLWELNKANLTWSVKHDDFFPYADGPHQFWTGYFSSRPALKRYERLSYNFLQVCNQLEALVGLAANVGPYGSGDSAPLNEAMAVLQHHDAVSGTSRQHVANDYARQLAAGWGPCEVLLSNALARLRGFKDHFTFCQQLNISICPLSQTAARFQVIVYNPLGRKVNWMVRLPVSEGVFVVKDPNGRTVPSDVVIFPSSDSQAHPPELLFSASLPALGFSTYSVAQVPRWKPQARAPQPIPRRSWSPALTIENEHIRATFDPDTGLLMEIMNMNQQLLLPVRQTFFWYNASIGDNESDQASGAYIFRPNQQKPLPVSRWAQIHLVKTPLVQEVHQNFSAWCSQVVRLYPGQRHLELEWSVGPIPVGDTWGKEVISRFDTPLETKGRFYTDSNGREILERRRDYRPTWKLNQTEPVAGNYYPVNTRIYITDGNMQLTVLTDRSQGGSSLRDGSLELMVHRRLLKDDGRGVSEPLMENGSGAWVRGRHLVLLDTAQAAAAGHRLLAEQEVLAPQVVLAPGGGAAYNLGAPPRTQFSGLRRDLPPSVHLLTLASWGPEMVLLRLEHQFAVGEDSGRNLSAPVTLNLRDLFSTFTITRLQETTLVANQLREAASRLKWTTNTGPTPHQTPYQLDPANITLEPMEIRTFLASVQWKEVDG
The assay is described as above.
Experimental: as §1

From patent US20170258870A1 (NORTHWESTERN UNIVERSITY, published 2017) come the findings set out here.

The star is where a group is joined. Biotin = O=C1N[C@H]2[C@H](CS[C@H]2CCCCC(=O)*)N1; Ttds = NCCCOCCOCCOCCCNC(=O)CCC(=O)*

Chain of bovine serum albumin (BSA) (P02769 25-607 limits assumed): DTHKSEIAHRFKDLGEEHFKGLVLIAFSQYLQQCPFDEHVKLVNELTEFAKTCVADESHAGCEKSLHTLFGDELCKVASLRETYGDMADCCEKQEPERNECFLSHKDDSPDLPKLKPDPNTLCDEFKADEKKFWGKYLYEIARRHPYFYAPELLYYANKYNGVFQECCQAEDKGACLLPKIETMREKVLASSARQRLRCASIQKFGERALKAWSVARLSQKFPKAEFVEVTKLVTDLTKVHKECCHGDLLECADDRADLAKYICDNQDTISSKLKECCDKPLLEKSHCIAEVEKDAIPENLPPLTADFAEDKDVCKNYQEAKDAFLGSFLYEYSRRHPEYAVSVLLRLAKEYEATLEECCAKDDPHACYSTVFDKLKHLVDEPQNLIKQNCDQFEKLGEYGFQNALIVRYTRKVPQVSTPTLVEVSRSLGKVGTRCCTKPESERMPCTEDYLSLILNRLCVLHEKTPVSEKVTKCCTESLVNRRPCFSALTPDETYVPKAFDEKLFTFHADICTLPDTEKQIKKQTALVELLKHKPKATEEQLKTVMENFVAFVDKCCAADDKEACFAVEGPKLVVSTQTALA

B1: Helix 5 peptide (LIMP-2-derived, L152-E175) (peptide)
peptide: {Biotin-Ttds}-LREIIEAMLKAYQQKLFVTHTVDE-OH
notes: Synthetic peptide from jpt Peptide Technologies; also called wild-type helix 5 peptide; LIMP-2-derived helix 5 peptide
Turning to B1, the binding result in assay [1] and in assay [2] was “no binding” in each case.
